Data taken from patent US20060149033A1, “IGF antagonist peptides” (GENENTECH, INC., priority 2001, published 2006).
Bridge positions count the residues as written; N and C are the ends. Peptide text beside a SMILES is read from it.

Target: T1, IGF-1 (Homo sapiens, UniProt P05019)
T1 construct: made in house
Assay: Affinity measurement by monovalent phage ELISA (phage competition IC50)
Format: binding
Settings: positive second generation clones
Protocol: E. coli XL1-Blue harboring phagemids were grown overnight at 37° C. in 2YT, 50 μg/mL carbenicillin, 10 μg/mL tetracycline and M13-VCS helper phage (10^10 phage/mL). Phage were harvested from the culture supernatant by precipitation twice with PEG/NaCl and resuspended in phosphate-buffered saline, 0.2% BSA, 0.1% TWEEN®-20 detergent (BSA blocking buffer). Phage concentrations were determined spectrophotometrically (λ268=1.2×10^8 M^−1 cm^−1).
MAXISORP™ immunoplates (96-well) were coated with capture target protein for 2 hours at room temperature (100 μL at 5 μg/mL in 50 mM carbonate buffer, pH 9.6). The plates were then blocked for 1 h with 0.2% BSA in phosphate-buffered saline (PBS) and washed eight times with PBS, 0.05% TWEEN®-20 detergent. Phage particles were serially diluted into BSA blocking buffer and 100 μL were transferred to coated wells. After 1 h, plates were washed eight times with PBS, 0.05% TWEEN®-20 detergent, incubated with 100 μL of 1:3000 horse radish peroxidase/anti-M13 antibody conjugate in BSA blocking buffer for 30 min, and then washed eight times with PBS, 0.05% TWEEN®-20 detergent and two times with PBS. Plates were developed using a tetramethylbenzidine substrate (TMB, Kirkegaard and Perry, Gaithersburg, Md.), stopped with 1.0 M H3PO4, and read spectrophotometrically at […].
Affinity Measurement by Monovalent Phage ELISA
Phage ELISAs were carried out as described above, using plates coated with IGF-1. Peptide-displaying phage were serially diluted and binding was measured to determine a phage concentration giving <50% of the ELISA signal at saturation.
A fixed, subsaturating concentration of peptide-phage was mixed with serial dilutions of IGF-1 and incubated for 1.0 hr and then transferred to assay plates coated with IGF-1. After 30-min incubation, the plates were washed and developed as described above. The binding affinities of the peptides for IGF-1 were determined as IC50 values where the IC50 value is defined as the concentration of IGF-1 that blocked 50% of the peptide-phage binding to the immobilized IGF-1.

T1 sequence (P05019 49-118 limits assumed): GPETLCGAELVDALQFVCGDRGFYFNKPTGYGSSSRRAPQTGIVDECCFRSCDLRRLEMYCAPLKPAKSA

| IC50 [µM] | Molecule |
| --- | --- |
| 24.6 | F2-B (VRCAYDAGGSRYCWE; Sequence is synthesized) [Peptide F2-B] |
| 10000 | F2-C (VKCARDLSGFVYCWA; Sequence is synthesized) [Peptide F2-C] |
| 249 | F2-D (VRCAWDLGGRAYCWA; Sequence is synthesized) [Peptide F2-D] |
| 0.554 | F2-E (LGCASDLAGFWYCWA; Sequence is synthesized) [Peptide F2-E] |
| 209 | F2-F (FRCAWELGWLYVLGL; Sequence is synthesized) [Peptide F2-F] |
| 0.986 | F2-G (ASCVADAGGGGYCWD; Sequence is synthesized) [Peptide F2-G] |
| 0.319 | F2-H (WRCVDDLGGFQYCWA; Sequence is synthesized) [Peptide F2-H] |
| 1.03 | F2-I (VTCAADALGFLYCWE; Sequence is synthesized) [Peptide F2-I] |
| 2.12 | F2-J (LRCAEDLGGYFYCWA; Sequence is synthesized) [Peptide F2-J] |
| 1.45 | F2-K (YRCATDLAGFSYCWA; Sequence is synthesized) [Peptide F2-K] |
| 4.36 | F2-L (ARCARDAGGFYYCWA; Sequence is synthesized) [Peptide F2-L] |
| 1.04 | F2-M (WRCAQDAGGWTYCWA; Sequence is synthesized) [Peptide F2-M] |
| 1.18 | F2-N (WRCVTDAGGRPYCWA; Sequence is synthesized) [Peptide F2-N] |

Further lines, the molecule ahead of its results:

| Molecule | IC50 [µM] |
| --- | --- |
| F1-A (HPCLESVGALKACMY; Sequence is synthesized) [Peptide F1-A] | 0.401 |
| F1-B (FGCYESVAALRTCMY; Sequence is synthesized) [Peptide F1-B] | 0.301 |
| F1-C (RNCFESVAALRRCMY; Sequence is synthesized) [Peptide F1-C] | 0.108 |
| F1-E (SDCFGSVEALKMCMY; Sequence is synthesized) [Peptide F1-E] | 0.711 |
| F1-F (FECLTSVEALRGCMY; Sequence is synthesized) [Peptide F1-F] | 0.286 |
| F1-G (SDCFESVEALRACMY; Sequence is synthesized) [Peptide F1-G] | 0.968 |
| F1-H (MDCLASVEALKWCMY; Sequence is synthesized) [Peptide F1-H] | 0.147 |
| F2-A (GGCASDLAGFRYCWE; Sequence is synthesized) [Peptide F2-A] | 1.33 |

System: human type 1 IGF-1 receptor
Assay: Cell-based IGF-1 KIRA assay
Settings: MCF-7 cells; peptides preincubated 30 min with 2 nm IGF-1; 15-minute stimulation
Protocol: Cell-Based IGF-1 KIRA Assay
A KIRA for measuring the activation of the human type 1 IGF-1 receptor was performed using human MCF-7 cells (as described above). Cells were grown overnight in 96-well plates with medium (50:50 F12/DMEM, Gibco). Supernatants were decanted, and stimulation media (50:50 F12/DMEM with 25 mM HEPES and 2.0% BSA) containing either controls (2 nM IGF-1 preincubated with IGF Bp1 or Bp3) or experimental samples (Peptides preincubated for 30 min. with 2 nm IGF-1) were added. After 15-minute stimulation the cells were lysed, and added to the polyclonal anti-IGF-R (3B7 Santa Cruz Biotech) coated overnight on immunosorbant plates. The detection ELISA was performed as above.

| Molecule | IC50 [µM] |
| --- | --- |
| CSCC[C@H](NC(=O)[C@@H]1CSSC[C@H](NC(=O)[C@H](CCC(=O)O)NC(=O)[C@@H](N)CC(=O)O)C(=O)N[C@@H](CC(C)C)C(=O)N[C@@H](CCSC)C(=O)N[C@@H](CO)C(=O)N[C@@H](C(C)C)C(=O)N[C@@H](CCC(=O)O)C(=O)N[C@@H](C)C(=O)N[C@@H](CC(C)C)C(=O)N[C@@H](CCCCN)C(=O)N[C@@H](CC(N)=O)C(=O)N1)C(=O)NCC(=O)NCC(=O)O [Peptide F1-P, DECLMSVEALKNCMGG] (H-DECLMSVEALKNCMGG-OH; disulfide 3-13) | 400 |
| CC(C)C[C@@H]1NC(=O)[C@H](CC(=O)O)NC(=O)[C@H](CC(=O)O)NC(=O)[C@H](C(C)C)NC(=O)[C@@H](NC(=O)[C@H](CCCNC(=N)N)NC(=O)[C@@H](N)Cc2c[nH]c3ccccc23)CSSC[C@@H](C(=O)N[C@@H](Cc2c[nH]c3ccccc23)C(=O)N[C@@H](C)C(=O)NCC(=O)O)NC(=O)[C@H](Cc2ccc(O)cc2)NC(=O)[C@H](CCC(N)=O)NC(=O)[C@H](Cc2ccccc2)NC(=O)CNC(=O)CNC1=O [Peptide F2-2, WRCVDDLGGFQYCWAG] (H-WRCVDDLGGFQYCWAG-OH; disulfide 3-13 (inferred); N-terminus and C-terminus assumed) | 130 |

System: human insulin receptor (hIR)
Assay: Cell-based insulin KIRA assay (kinase receptor activation)
Settings: Chinese hamster ovary cells transfected with hIR; peptides incubated with 25 nm IGF-1 for 1 hr; 15 min stimulation
Protocol: Cell-Based Insulin KIRA Assay of IGF-1 Binding Peptide Activity
A kinase receptor activation assay (KIRA) (Sadick et al., J. Pharm. Biomed. Anal., 19, 883-891 (1999)) for measuring phosphorylation of human insulin receptor (hIR) was developed using Chinese hamster ovary cells transfected with the hIR. (TRY-1R 5.3) Cells were grown overnight in 96-well plates with medium (PS/20) at 37° C. Supernatants were decanted and stimulation media (PS/20 and 0.5% BSA) containing either peptide samples (peptides incubated with 25 nm IGF-1 for 1 hr), experimental controls (IGF Bp1 incubated with IGF-1 for 1 hr), and 25 nm rhIGF-1 standards were added. After fifteen minute stimulation at 37° C., stimulation solutions were removed and cells were lysed with a buffer containing 50 mM HEPES, 150 mM NaCl, 0.5% Triton-X-100™ octylphenyl ethylene oxide condensate, 1 mM AEBSF, aprotinin and 0.05 mM leupeptin, and 2 mM sodium orthovanadate. Lysates were frozen at −70° C. for ELISA. Immunosorbant plates were coated with 2 μg/ml insulin receptor Ab-2 (clone 83-7) in PBS at pH 7.0 overnight at 4° C. The plate was blocked and washed as above. Cell lysates containing transfected hIR were incubated on the capture ELISA plates for 2 hrs. After removing unbound receptor by washing, biotinylated anti-phosphotyrosine 4G10 (Upstate Biologicals Inc.) was added to detect activated receptor. After 2 hrs, the plates were developed with streptavidin conjugated to HRP and TMB substrate as above.

| Molecule | IC50 [µM] |
| --- | --- |
| CSCC[C@H](NC(=O)[C@@H]1CSSC[C@H](NC(=O)[C@H](CCC(=O)O)NC(=O)[C@@H](N)CC(=O)O)C(=O)N[C@@H](CC(C)C)C(=O)N[C@@H](CCSC)C(=O)N[C@@H](CO)C(=O)N[C@@H](C(C)C)C(=O)N[C@@H](CCC(=O)O)C(=O)N[C@@H](C)C(=O)N[C@@H](CC(C)C)C(=O)N[C@@H](CCCCN)C(=O)N[C@@H](CC(N)=O)C(=O)N1)C(=O)NCC(=O)NCC(=O)O [Peptide F1-P, DECLMSVEALKNCMGG] (H-DECLMSVEALKNCMGG-OH; disulfide 3-13) | 183 |
| CC(C)C[C@@H]1NC(=O)[C@H](CC(=O)O)NC(=O)[C@H](CO)NC(=O)[C@H](C)NC(=O)[C@@H](NC(=O)CNC(=O)[C@@H](N)CC(C)C)CSSC[C@@H](C(=O)N[C@@H](Cc2c[nH]c3ccccc23)C(=O)N[C@@H](C)C(=O)NCC(=O)O)NC(=O)[C@H](Cc2ccc(O)cc2)NC(=O)[C@H](Cc2c[nH]c3ccccc23)NC(=O)[C@H](Cc2ccccc2)NC(=O)CNC(=O)[C@H](C)NC1=O [Peptide F2-1, LGCASDLAGFWYCWAG] (H-LGCASDLAGFWYCWAG-OH; disulfide 3-13 (inferred); N-terminus and C-terminus assumed) | 40.4 |
| CC(C)C[C@@H]1NC(=O)[C@H](CC(=O)O)NC(=O)[C@H](CC(=O)O)NC(=O)[C@H](C(C)C)NC(=O)[C@@H](NC(=O)[C@H](CCCNC(=N)N)NC(=O)[C@@H](N)Cc2c[nH]c3ccccc23)CSSC[C@@H](C(=O)N[C@@H](Cc2c[nH]c3ccccc23)C(=O)N[C@@H](C)C(=O)NCC(=O)O)NC(=O)[C@H](Cc2ccc(O)cc2)NC(=O)[C@H](CCC(N)=O)NC(=O)[C@H](Cc2ccccc2)NC(=O)CNC(=O)CNC1=O [Peptide F2-2, WRCVDDLGGFQYCWAG] (H-WRCVDDLGGFQYCWAG-OH; disulfide 3-13 (inferred); N-terminus and C-terminus assumed) | 93.6 |
| CC(C)[C@@H]1NC(=O)[C@@H](NC(=O)[C@H](CCCNC(=N)N)NC(=O)[C@H](C)N)CSSC[C@@H](C(=O)N[C@@H](Cc2c[nH]c3ccccc23)C(=O)N[C@@H](C)C(=O)NCC(=O)O)NC(=O)[C@H](Cc2ccc(O)cc2)NC(=O)[C@H](Cc2c[nH]c3ccccc23)NC(=O)[C@H]([C@@H](C)O)NC(=O)CNC(=O)CNC(=O)[C@H](C)NC(=O)[C@H](CC(=O)O)NC(=O)[C@H](C(C)C)NC1=O [Peptide F2-P, ARCVVDAGGTWYCWAG] (H-ARCVVDAGGTWYCWAG-OH; disulfide 3-13) | 300 |
